Article doi:10.1101/2024.01.29.577165

Columns and labels:
[1] = target: Grappling Hook Protein A (GhpA), assembled as the grappling hook (Aureispira sp. CCB-QB1); experiment: cryo-EM structure
[2] = target: Grappling Hook Protein A (GhpA), assembled as the grappling hook (Aureispira sp. CCB-QB1); experiment: cryo-electron tomography with subtomogram averaging

- stoichiometry N [1]: 7
- stoichiometry N [2]: 7
Substance: Grappling Hook Protein A (GhpA), assembled as the grappling hook (natural protein)
